In patent US20260347486 (published 2026):
Positions count from the first letter of the chain named.

T1: IL-18Rβ ECD (human)
T1 chain: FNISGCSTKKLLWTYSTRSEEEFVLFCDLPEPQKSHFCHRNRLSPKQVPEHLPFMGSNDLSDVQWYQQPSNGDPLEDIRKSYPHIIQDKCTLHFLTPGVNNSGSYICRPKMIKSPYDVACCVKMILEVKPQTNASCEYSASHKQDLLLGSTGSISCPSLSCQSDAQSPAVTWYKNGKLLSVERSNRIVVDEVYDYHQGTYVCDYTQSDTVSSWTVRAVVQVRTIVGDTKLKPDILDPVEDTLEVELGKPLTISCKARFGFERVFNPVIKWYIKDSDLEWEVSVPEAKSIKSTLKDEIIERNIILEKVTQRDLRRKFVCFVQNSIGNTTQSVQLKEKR

T2: IL-18Rα ECD (human)
T2 chain: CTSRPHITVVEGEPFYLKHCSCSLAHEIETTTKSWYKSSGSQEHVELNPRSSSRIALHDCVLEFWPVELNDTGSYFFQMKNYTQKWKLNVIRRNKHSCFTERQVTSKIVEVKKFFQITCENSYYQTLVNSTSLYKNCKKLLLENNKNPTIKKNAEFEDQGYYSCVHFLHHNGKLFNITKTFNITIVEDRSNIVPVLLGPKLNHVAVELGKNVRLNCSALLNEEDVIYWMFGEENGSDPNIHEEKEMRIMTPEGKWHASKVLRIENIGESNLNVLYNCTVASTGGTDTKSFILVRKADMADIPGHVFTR

B1: ms_IL18R_VHHα10 (antibody, V domains shown)
VH: DVQLQESGGGLVQAGGSLRLSCAASGLPFSSYAMGWFRQAPGKDREFVAGITWSGSSIYYRDSVKGRFTISRDNAKNTVWLQMNDLKPEDTAVYYCAAARRRVGLPLADPREYVYWGQGTQVTVSS
B2: ms_IL18R_VHHα11 (antibody, V domains shown)
VH: DVPLQESGGGLVQPGQSLRLSCAASGSPIRFSVMGWFQQAPGKGRDLIARITSGGIVYYTDSVKGRFTISKDNAKNTLYLQMNSLNLEDTGVYYCNRLGGALFDWGQGTQVTVSS
B3: ms_IL18R_VHHα8 (antibody, V domains shown)
VH: DVQLQESGGGLVQAGGSLRLSCAASGRTFSNDAMGWFRQAPGKEREFVAAVSWSLGMTYNADSVKGRFTISRDNAKNTVYLQMNSLKPDDTAVYYCAAGPDLSDELYGYDYWGQGTQVTVSS
B4: ms_IL18R_VHHα5 (antibody, V domains shown)
VH: DVQLQESGGGLVQAGGSLRLSCAASGRTFSNLAMAWFRQAPGKEREFVAAIDWNGDNRLYAASVKGRFTISRDNAKSTMYLQMNSLKPEDTAVYYCAADSTYSTDWYLNPLNRTRYDYWGQGTQVTVSS
B5: ms_IL18R_VHHα7 (antibody, V domains shown)
VH: B4 VH with R27H, S30N, F37C, A49S, A62Y, D105N, N109D, R115T, D117N, Q124P
B6: ms_IL18R_VHHα6 (antibody, V domains shown)
VH: DVPLQESGGGSVQPGGSLRLSCAASKSIFSINAMRWHRQAPGKQRELVATFTSSGRINYADSVKGRFTISTDNAKNTIYLQMNSLNPEDTAVYRCNVGLWEDGLWYDYWGQGTQVTVSS
B7: ms_IL18R_VHHα1 (antibody, V domains shown)
VH: DVPLQESGGGLVQTGGSLRLSCAASGFTFNSYAMGWYQQAPGKKYRELVAHIGSGGSTRYIDSVKGRFTISRDNAKNTVYLQMNSLKPEDTAVYYCNVYGATLRSWGQGTQVTVSS
B8: ms_IL18R_VHHα2 (antibody, V domains shown)
VH: DVQLQESGGGLVQAGGSLRLSCAASGFTLLDSYDIGWFRQAPGKKREEVSCISSSGGKSTYYADSVKGRFTISRDNANNTVYLQMNSLKPEDTAVYYCAADGAEGFWSCQSGGYDYWGQGTQVTVSS
B9: ms_IL18R_VHHα4 (antibody, V domains shown)
VH: DVQLQESGGGLVQAGGSLRLSCAASGFTLGAYAINWFQQAPGKERARAWVLCITSSGGSAYYVDSVKGRFTVSRDNAKNTVYLQMNSLKPEDTAFYYCAAGGACAAAETMNYWGKGTLVTVSS
B10: ms_IL18R_VHHα3 (antibody, V domains shown)
VH: B9 VH with Q38R, V50D, L51A, G58R, V63A, N76H, G102A, E108G
B11: ms_IL18R_VHHβ19 (antibody, V domains shown)
VH: DVQLQESGGGLVQAGGSLRLSCAASGIRFNPFRMAWYRQAPGKQRELVAAIDSGGSTDYADSVRGRFTISRDNAKITVSLQMNSLKPEDTAVYYCNTQIFARDYWGQGSQVTVSS
B12: ms_IL18R_VHHα9 (antibody, V domains shown)
VH: DVQLQESGGGLVQPGESLRLSCTASRSDFSRYTMGWYRQAPGKWRELVARITSGGIPHYADSVKGRFTISRDNAKNTVTLQMNTLQFEDSAVYYCNTVGVALWAWGQGTLVTVSS
B13: ms_IL18R_VHHβ17 (antibody, V domains shown)
VH: DVPLQESGGGLVQAGGSLRLSCVASGFALDEIAVGWFRQAPGKEREGLSCISSSDGSTLYADSVKGRFTISSDNAKNTVYLQMNSLKPEDTAVYLCAAVRGSCFGRTTHWGQGTQVTVSS
B14: ms_IL18R_VHHβ15 (antibody, V domains shown)
VH: DVQLQESGGGLVQPGGSLRLSCAASGRFFTINAMGWYRQTPGKQRELVAAITSDGSTTYQDSVKGRFTISRDNANRTANLYMNSLKSEDTAVYYCNADGRFNDNGYVKNFNIWGQGTQVTVSS
B15: ms_IL18R_VHHβ20 (antibody, V domains shown)
VH: DVQLQESGGGLVQAGGSLRLSCAASVSAFRLKVMGWYRQAPGKEREFVAAIDSGDTKSYTNAVKGRFTISGGAATNTVVLQMNSLKPEDTAFYYCNAVLFGRDYWGQGTQVTVSS
B16: ms_IL18R_VHHβ22 (antibody, V domains shown)
VH: DVPLQESGGGLVQPGGSLRLSCAAPGFALEYYAIGWFRQAPGKEREGLSCVSSSRSGGSTVYADSVKGRFTISRDNAKNTVYLQIDSLKVEDTAVYYCAGAPAYRSHYCRLQADDYTYWGQGTQVTVSS
B17: ms_IL18R_VHHβ21 (antibody, V domains shown)
VH: DVQLQESGGGLVQAGGSLRLSCAASGITFSPYVMGWYRQAPGKQRELVADMVNGGSTNYADSVKGRFTIFRDTAANTVTLQMNNLKPDDTAVYYCHIMIFGRASWGQGTQVTVSS
B18: ms_IL18R_VHHβ14 (antibody, V domains shown)
VH: DVPLQESGGGLVQAGGSLRLSCAASDRTVSKGAMGWFRQAPGKEREFVATIGRSSGITYYADSVKGRFTISRDNAKNTWYLQMNSLRPEDTAVYYCAADSSGIIRTTSWAYDYWGQGTQVTVSS
B19: ms_IL18R_VHHβ12 (antibody, V domains shown)
VH: DVPLQESGGGLVQPGGSLRLSCRASGVGFSIYTMGWYRQAPGEQRHLVATVTTGGHINYGDSVQGRFTISRENNGNVVELQMHSLKPEDTAVYFCNAIYFGQDIWGQGTQVTVSS
B20: ms_IL18R_VHHβ18 (antibody, V domains shown)
VH: DVQLQESGGGLVQAGGSLRLSCAASGRTFSSYAMGWFRQAPGMVREFVAAISWSGGSTYYADSVQGRFTISRDNAKNTVYLQMNSLKPEDTAVYYCAADRSLSGSYFGATIDYWGQGTQVTVSS
B21: ms_IL18R_VHHβ16 (antibody, V domains shown)
VH: DVQLQESGGGSVPAGGSLRLSCSASGFTTDDYIIGWFRQAPGKKREGVSCISTTDGSAWYADSVKGRFTISSDNANNTVTLQMNSLLPEDTSVYYCAEVSTGTGVLYCREEFYFGMDSWGKGTPVTVSS
B22: ms_IL18R_VHHβ13 (antibody, V domains shown)
VH: DVQLQESGGGLVQPGGSLRLSCAASGISFRVNVLGWYRQAPGKPRELVASISSGDSTNYADSVKGRFTISRDNAKSTVYLQMNNLKPEDTAVYYCNARIFARDNWGQGTQVTVSS
B23: IL18R_VHHα8β17 (antibody, V domains shown)
V domain 1: B3 VH
V domain 2: B13 VH
B24: IL18R_VHHα2β17 (antibody, V domains shown)
V domain 1: B8 VH
V domain 2: B13 VH
B25: IL18R_VHHα8β15 (antibody, V domains shown)
V domain 1: B3 VH
V domain 2: B14 VH
B26: IL18R_tanVHHα2β15 (antibody, V domains shown)
V domain 1: B8 VH
V domain 2: B14 VH
B27: IL18R_tanVHHβ15α2 (antibody, V domains shown)
V domain 1: B14 VH
V domain 2: B8 VH
B28: IL18R_VHHα2β15 (antibody, V domains shown)
V domain 1: B8 VH
V domain 2: B14 VH

Target: T1, IL-18Rβ ECD
Test: BLI

binding result | Binder
no binding | B1
no binding | B2
no binding | B3
no binding | B4
no binding | B5
no binding | B6
no binding | B7
no binding | B8
no binding | B9
no binding | B10
no binding | B11
no binding | B12

Target: T2, IL-18Rα ECD
Test: BLI

binding result | Binder
no binding | B13
no binding | B14
no binding | B15
no binding | B16
no binding | B17
no binding | B18
no binding | B19
no binding | B20
no binding | B21
no binding | B22
no binding | B11

Target: IL-18BP (human)
Test: BLI

binding result | Binder
no binding | B23
no binding | B24
no binding | B25
no binding | B26
no binding | B27
no binding | B28
